Test results from patent US20230257473A1 (TENEOBIO, published 2023).

B1: anti-BCMA heavy chain-only antibody (UniAb) with the VH of SEQ ID NO: 12 (antibody, V domains shown)
VH: QVQLVESGGGLVQPGGSLRLSCVASGFTFSSNAMSWVRQAPGKGLEWVSAISGSGDYTHYSDSVKGRFTISRDNSKNTLYLQMNSLRAEDTAVYYCAKEVPGGPLVDFDSRGQGTLVTVSS
notes: Heavy chain-only antibody from UniRat; also called Clone ID No: 316302
B2: AntiX**BCMA_F7E_F7E (bispecific antibody, part only; not given: other chains of three-chain format, not shown: another chain or arm of the molecule)
tandem VH: QVQLVESGGGLVQPGGSLRLSCVASGFTFSSNAMSWVRQAPGKGLEWVSAISGSGDYTHYSDSVKGRFTISRDNSKNTLYLQMNSLRAEDTAVYYCAKEVPGGPLVDFDSRGQGTLVTVSSGGGGSGGGGSQVQLVESGGGLVQPGGSLRLSCVASGFTFSSNAMSWVRQAPGKGLEWVSAISGSGDYTHYSDSVKGRFTISRDNSKNTLYLQMNSLRAEDTAVYYCAKEVPGGPLVDFDSRGQGTLVTVSS

Experiments:
[1] = biological target: BCMA on BCMA-expressing cells (H929 / NCI-H929, MM1.S, U266, Daudi) (human) (UniProt Q02223); assay: flow cytometry on MM1.S cells; antibody 1.560 ng/ml
[2] = biological target: BCMA on BCMA-expressing cells (H929 / NCI-H929, MM1.S, U266, Daudi) (human) (UniProt Q02223); assay: flow cytometry on MM1.S cells; antibody 6.250 ng/ml
[3] = biological target: BCMA on BCMA-expressing cells (H929 / NCI-H929, MM1.S, U266, Daudi) (human) (UniProt Q02223); assay: flow cytometry on MM1.S cells; antibody 25.000 ng/ml
[4] = biological target: BCMA on BCMA-expressing cells (H929 / NCI-H929, MM1.S, U266, Daudi) (human) (UniProt Q02223); assay: flow cytometry on MM1.S cells; antibody 50.000 ng/ml
[5] = biological target: BCMA on BCMA-expressing cells (H929 / NCI-H929, MM1.S, U266, Daudi) (human) (UniProt Q02223); assay: flow cytometry on MM1.S cells; antibody 100.000 ng/ml
[6] = biological target: BCMA on BCMA-expressing cells (H929 / NCI-H929, MM1.S, U266, Daudi) (human) (UniProt Q02223); assay: flow cytometry on MM1.S cells; antibody 200.000 ng/ml
[7] = biological target: recombinant BCMA (R&D Systems, catalog no. 193-BC) (human) (UniProt Q02223); assay: competitive ELISA, plate-bound BCMA; Ab 0.002 ng/mL; competitor APRIL 0.00 ng/mL
[8] = biological target: recombinant BCMA (R&D Systems, catalog no. 193-BC) (human) (UniProt Q02223); assay: competitive ELISA, plate-bound BCMA; Ab 0.002 ng/mL; competitor APRIL 7.81 ng/mL
[9] = biological target: recombinant BCMA (R&D Systems, catalog no. 193-BC) (human) (UniProt Q02223); assay: competitive ELISA, plate-bound BCMA; Ab 0.020 ng/mL; competitor APRIL 0.00 ng/mL
[10] = biological target: recombinant BCMA (R&D Systems, catalog no. 193-BC) (human) (UniProt Q02223); assay: competitive ELISA, plate-bound BCMA; Ab 0.002 ng/mL; competitor APRIL 31.25 ng/mL
[11] = biological target: recombinant BCMA (R&D Systems, catalog no. 193-BC) (human) (UniProt Q02223); assay: competitive ELISA, plate-bound BCMA; Ab 0.002 ng/mL; competitor APRIL 62.50 ng/mL
[12] = biological target: recombinant BCMA (R&D Systems, catalog no. 193-BC) (human) (UniProt Q02223); assay: competitive ELISA, plate-bound BCMA; Ab 0.020 ng/mL; competitor APRIL 31.25 ng/mL
[13] = biological target: recombinant BCMA (R&D Systems, catalog no. 193-BC) (human) (UniProt Q02223); assay: competitive ELISA, plate-bound BCMA; Ab 0.020 ng/mL; competitor APRIL 62.50 ng/mL
[14] = biological target: recombinant BCMA (R&D Systems, catalog no. 193-BC) (human) (UniProt Q02223); assay: competitive ELISA, plate-bound BCMA; Ab 0.200 ng/mL; competitor APRIL 31.25 ng/mL
[15] = biological target: recombinant BCMA (R&D Systems, catalog no. 193-BC) (human) (UniProt Q02223); assay: competitive ELISA, plate-bound BCMA; Ab 0.200 ng/mL; competitor APRIL 62.50 ng/mL
[16] = biological target: recombinant BCMA (R&D Systems, catalog no. 193-BC) (human) (UniProt Q02223); assay: competitive ELISA, plate-bound BCMA; Ab 2.000 ng/mL; competitor APRIL 15.63 ng/mL
[17] = biological target: recombinant BCMA (R&D Systems, catalog no. 193-BC) (human) (UniProt Q02223); assay: competitive ELISA, plate-bound BCMA; Ab 2.000 ng/mL; competitor APRIL 62.50 ng/mL
[18] = biological target: recombinant BCMA (R&D Systems, catalog no. 193-BC) (human) (UniProt Q02223); assay: competitive ELISA, plate-bound BCMA; Ab 0.002 ng/mL; competitor APRIL 125.00 ng/mL
[19] = biological target: recombinant BCMA (R&D Systems, catalog no. 193-BC) (human) (UniProt Q02223); assay: competitive ELISA, plate-bound BCMA; Ab 0.002 ng/mL; competitor APRIL 500.00 ng/mL
[20] = biological target: recombinant BCMA (R&D Systems, catalog no. 193-BC) (human) (UniProt Q02223); assay: competitive ELISA, plate-bound BCMA; Ab 0.200 ng/mL; competitor APRIL 125.00 ng/mL
[21] = biological target: recombinant BCMA (R&D Systems, catalog no. 193-BC) (human) (UniProt Q02223); assay: competitive ELISA, plate-bound BCMA; Ab 0.200 ng/mL; competitor APRIL 250.00 ng/mL
[22] = biological target: recombinant BCMA (R&D Systems, catalog no. 193-BC) (human) (UniProt Q02223); assay: competitive ELISA, plate-bound BCMA; Ab 0.200 ng/mL; competitor APRIL 500.00 ng/mL
[23] = biological target: recombinant BCMA (R&D Systems, catalog no. 193-BC) (human) (UniProt Q02223); assay: competitive ELISA, plate-bound BCMA; Ab 20.000 ng/mL; competitor APRIL 31.25 ng/mL
[24] = biological target: recombinant BCMA (R&D Systems, catalog no. 193-BC) (human) (UniProt Q02223); assay: competitive ELISA, plate-bound BCMA; Ab 20.000 ng/mL; competitor APRIL 125.00 ng/mL
[25] = biological target: recombinant BCMA (R&D Systems, catalog no. 193-BC) (human) (UniProt Q02223); assay: competitive ELISA, plate-bound BCMA; Ab 200.000 ng/mL; competitor APRIL 125.00 ng/mL
[26] = biological target: BCMA on BCMA-expressing cells (H929 / NCI-H929, MM1.S, U266, Daudi) (human) (UniProt Q02223); assay: flow cytometry on MM1.S cells; antibody 0000 ng/ml (background)

Chain of BCMA on BCMA-expressing cells (H929 / NCI-H929, MM1.S, U266, Daudi) (human) (Q02223 whole entry): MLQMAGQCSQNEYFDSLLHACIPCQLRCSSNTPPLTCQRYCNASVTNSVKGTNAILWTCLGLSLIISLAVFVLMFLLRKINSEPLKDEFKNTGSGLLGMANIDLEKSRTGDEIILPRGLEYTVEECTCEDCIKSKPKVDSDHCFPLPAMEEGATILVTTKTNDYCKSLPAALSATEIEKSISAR
Chain of recombinant BCMA (R&D Systems, catalog no. 193-BC) (human) (Q02223 5-51 limits assumed): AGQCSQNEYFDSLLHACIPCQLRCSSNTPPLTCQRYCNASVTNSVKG

Binder | MFI [1] | MFI [2] | MFI [3] | MFI [4] | MFI [5] | MFI [6] | A450-A570 [7] | A450-A570 [8] | A450-A570 [9] | A450-A570 [10] | A450-A570 [11] | A450-A570 [12] | A450-A570 [13] | A450-A570 [14] | A450-A570 [15] | A450-A570 [16] | A450-A570 [17] | A450-A570 [18] | A450-A570 [19] | A450-A570 [20] | also measured
B1 | 2110 | 2130 | 2130 | 2180 | 2440 | 3180 | 0.0616 | 0.0607 | 0.063 | 0.058 | 0.067 | 0.0622 | 0.0629 | 0.062 | 0.0631 | 0.0867 | 0.0834 | 0.066 | 0.0836 | 0.0643 | A450-A570 [21]: 0.0615; A450-A570 [22]: 0.0745; A450-A570 [23]: 0.418; A450-A570 [24]: 0.203; A450-A570 [25]: 1.37; MFI [26]: 2990
B2 | 2030 | 2110 | 2340 | 2930 | 4140 | 7340 | 0.0578 | 0.0602 | 0.057 | 0.0528 | 0.0569 | 0.0551 | 0.0577 | 0.0601 | 0.0595 | 0.107 | 0.098 | 0.0607 | 0.0617 | 0.0651 | A450-A570 [21]: 0.0614; A450-A570 [22]: 0.0603; A450-A570 [23]: 0.828; A450-A570 [24]: 0.637; A450-A570 [25]: 2.3; MFI [26]: 2990
